Source: the supplement of paper PMC9732359
± gives the uncertainty stated by the source.

Assay: protein stability index of a GFP-peptide fusion (yeast GPS) (PSI 1-4); higher = more stable; sorted into four equal gates, so the index is relative within each strain
Method in brief: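 Tiled 17-residue yeast protein peptides were fused downstream of GFP in a plasmid that also expresses Cherry, and the pooled library was carried in yeast. Mid-log cultures in leucine-free medium were sorted into four equal gates by GFP/Cherry fluorescence ratio, and plasmids from each gate were PCR-amplified and Illumina-sequenced, with reads assigned to strains by barcodes. The protein stability index for each peptide was each gate's read frequency times its gate number, summed.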

Sequence: FEVLAPKWERVFLFDIE [RRI2]
- protein stability index (doa10∆): 3.41 ± 0.12
- protein stability index (pdr5∆): 2.72 ± 0.085
- protein stability index (san1∆): 2.92 ± 0.1
- protein stability index (ubr1∆): 2.52 ± 0.068

Sequence: FGAKPDENKASATSKPA [YJL041W/NSP1]
- protein stability index (doa10∆): 2.59 ± 0.066
- protein stability index (pdr5∆): 2.87 ± 0.052
- protein stability index (san1∆): 2.56 ± 0.057
- protein stability index (ubr1∆): 2.74 ± 0.052

Sequence: FGAKSDEKKDSDSSKPA [YJL041W/NSP1]
- protein stability index (doa10∆): 3.04 ± 0.074
- protein stability index (pdr5∆): 3.21 ± 0.099
- protein stability index (san1∆): 3.24 ± 0.07
- protein stability index (ubr1∆): 3.04 ± 0.086

Sequence: FGKKRLDLAGPLLAQLF [RPB2]
- protein stability index (doa10∆): 1.44 ± 0.19
- protein stability index (pdr5∆): 1.79 ± 0.16
- protein stability index (san1∆): 1.42 ± 0.15
- protein stability index (ubr1∆): 1.4 ± 0.18

Sequence: FGKTTANLPANSSTSPA [YLR335W/NUP2]
- protein stability index (doa10∆): 3.01 ± 0.047
- protein stability index (pdr5∆): 3.14 ± 0.058
- protein stability index (san1∆): 2.96 ± 0.045
- protein stability index (ubr1∆): 3.12 ± 0.035

Sequence: FGNKPAGSTGFSFGQNN [YGR119C/NUP57]
- protein stability index (doa10∆): 1.75 ± 0.089
- protein stability index (pdr5∆): 1.77 ± 0.085
- protein stability index (san1∆): 1.46 ± 0.15
- protein stability index (ubr1∆): 1.29 ± 0.28

Sequence: FGPKKENRKKDESDSEN [YLR335W/NUP2]
- protein stability index (doa10∆): 3.04 ± 0.14
- protein stability index (pdr5∆): 3.19 ± 0.086
- protein stability index (san1∆): 2.62 ± 0.079
- protein stability index (ubr1∆): 3.42 ± 0.091

Sequence: FGQKGGQAIVVHPDYLY [FAS2]
- protein stability index (doa10∆): 1.86 ± 0.046
- protein stability index (pdr5∆): 1.62 ± 0.04
- protein stability index (san1∆): 1.99 ± 0.06
- protein stability index (ubr1∆): 1.68 ± 0.049

Sequence: FGSGTQNNNTLGGGGLF [YGR119C/NUP57]
- protein stability index (doa10∆): 3.37 ± 0.083
- protein stability index (pdr5∆): 2.94 ± 0.089
- protein stability index (san1∆): 3.07 ± 0.061
- protein stability index (ubr1∆): 3.11 ± 0.054

Sequence: FGTGKRLAKKVARRNAD [RPS24A]
- protein stability index (doa10∆): 3.46 ± 0.062
- protein stability index (pdr5∆): 3.31 ± 0.055
- protein stability index (san1∆): 3.1 ± 0.04
- protein stability index (ubr1∆): 3.31 ± 0.039

Sequence: FGVSFIYAGYDDRYGYQ [PRE9]
- protein stability index (doa10∆): 2.33 ± 0.09
- protein stability index (pdr5∆): 2.61 ± 0.097
- protein stability index (san1∆): 2.04 ± 0.19
- protein stability index (ubr1∆): 2.45 ± 0.11

Sequence: FGYDIPLLDIVLKADRS [YML103C/NUP188]
- protein stability index (doa10∆): 2.14 ± 0.061
- protein stability index (pdr5∆): 2.81 ± 0.073
- protein stability index (san1∆): 2.82 ± 0.068
- protein stability index (ubr1∆): 2.66 ± 0.057

Sequence: FHILLKLILEWVAPQES [ECM29]
- protein stability index (pdr5∆): 2.08 ± 0.27
- protein stability index (san1∆): 1.53 ± 0.17
- protein stability index (ubr1∆): 1.77 ± 0.14

Sequence: FHTSFSAVVGPNGSGKS [SMC4]
- protein stability index (doa10∆): 3.09 ± 0.089
- protein stability index (pdr5∆): 3.18 ± 0.084
- protein stability index (san1∆): 3.35 ± 0.085
- protein stability index (ubr1∆): 3.37 ± 0.12

Sequence: FIEDLAPEQQVQQFAQL [UBP6]
- protein stability index (doa10∆): 2.79 ± 0.059
- protein stability index (pdr5∆): 3.02 ± 0.046
- protein stability index (san1∆): 3.04 ± 0.049
- protein stability index (ubr1∆): 2.98 ± 0.037

Sequence: FIFQIIEITNSNDLCSQ [SRB8]
- protein stability index (doa10∆): 1.39 ± 0.059
- protein stability index (pdr5∆): 1.62 ± 0.049
- protein stability index (san1∆): 1.71 ± 0.1
- protein stability index (ubr1∆): 1.21 ± 0.075

Sequence: FILADAGLEITSDNLLT [RPP1B]
- protein stability index (doa10∆): 2.55 ± 0.052
- protein stability index (pdr5∆): 2.77 ± 0.054
- protein stability index (san1∆): 2.65 ± 0.076
- protein stability index (ubr1∆): 2.73 ± 0.049

Sequence: FIRHVAKLNYKNLNPAS [ECM29]
- protein stability index (doa10∆): 2.49 ± 0.15
- protein stability index (pdr5∆): 1.16 ± 0.1
- protein stability index (ubr1∆): 1.03 ± 0.076

Sequence: FIRYDVKTPKKTKYILQ [CSN12]
- protein stability index (doa10∆): 2.34 ± 0.048
- protein stability index (pdr5∆): 2.29 ± 0.048
- protein stability index (san1∆): 1.78 ± 0.057
- protein stability index (ubr1∆): 2.35 ± 0.051

Sequence: FISYHDKYLCMLKTCVF [NUT1]
- protein stability index (doa10∆): 2.67 ± 0.057
- protein stability index (pdr5∆): 2.95 ± 0.064
- protein stability index (san1∆): 3.03 ± 0.061
- protein stability index (ubr1∆): 2.13 ± 0.042

Sequence: FITNVQSISQNSSSSTP [SWI1]
- protein stability index (doa10∆): 2.38 ± 0.069
- protein stability index (pdr5∆): 2.63 ± 0.063
- protein stability index (san1∆): 2.43 ± 0.064
- protein stability index (ubr1∆): 2.44 ± 0.05

Sequence: FKAEKLQIVNQLPANMV [RPC17]
- protein stability index (doa10∆): 3.36 ± 0.085
- protein stability index (pdr5∆): 3.07 ± 0.068
- protein stability index (san1∆): 3.03 ± 0.071
- protein stability index (ubr1∆): 3.13 ± 0.056

Sequence: FKAIHGSQLRLSEWEEY [YCS4]
- protein stability index (doa10∆): 1.27 ± 0.058
- protein stability index (pdr5∆): 1.58 ± 0.05
- protein stability index (san1∆): 2 ± 0.12
- protein stability index (ubr1∆): 1.29 ± 0.029

Sequence: FKAMEDVIAWKNVLANS [ITC1]
- protein stability index (pdr5∆): 2.95 ± 0.16
- protein stability index (san1∆): 3.55 ± 0.078
- protein stability index (ubr1∆): 3.49 ± 0.16

Sequence: FKKSKIDHINEESWEKV [SCL1]
- protein stability index (doa10∆): 2.78 ± 0.062
- protein stability index (pdr5∆): 3.05 ± 0.067
- protein stability index (san1∆): 2.84 ± 0.049
- protein stability index (ubr1∆): 2.69 ± 0.039

Sequence: FKLPKKFPPPTPLLENI [BRR2]
- protein stability index (doa10∆): 2.44 ± 0.062
- protein stability index (pdr5∆): 2.72 ± 0.067
- protein stability index (san1∆): 2.31 ± 0.061
- protein stability index (ubr1∆): 2.71 ± 0.048

Sequence: FKLSSESVIEQIVKYAR [RPS13]
- protein stability index (doa10∆): 2.54 ± 0.1
- protein stability index (pdr5∆): 2.97 ± 0.11
- protein stability index (san1∆): 2.63 ± 0.097
- protein stability index (ubr1∆): 2.72 ± 0.043

Sequence: FKNTRETAQAINGWELT [RPL17A]
- protein stability index (doa10∆): 1.35 ± 0.031
- protein stability index (pdr5∆): 1.58 ± 0.04
- protein stability index (san1∆): 2.06 ± 0.062
- protein stability index (ubr1∆): 1.4 ± 0.033

Sequence: FKSTMLQVSEKDLFELE [ARP7]
- protein stability index (doa10∆): 1.25 ± 0.089
- protein stability index (pdr5∆): 2.49 ± 0.11
- protein stability index (san1∆): 1.1 ± 0.16
- protein stability index (ubr1∆): 1.4 ± 0.098

Sequence: FLARVIKEKFDEFIKTH [IRR1]
- protein stability index (doa10∆): 2.79 ± 0.081
- protein stability index (pdr5∆): 2.83 ± 0.08
- protein stability index (san1∆): 2.8 ± 0.059
- protein stability index (ubr1∆): 2.88 ± 0.074

Sequence: FLELTRRADVKTATVKI [RPL38]
- protein stability index (doa10∆): 1.67 ± 0.05
- protein stability index (pdr5∆): 1.77 ± 0.041
- protein stability index (san1∆): 2.02 ± 0.077
- protein stability index (ubr1∆): 1.2 ± 0.042

Sequence: FLKEKDTVAELQAQLDY [FAS2]
- protein stability index (doa10∆): 2.88 ± 0.091
- protein stability index (pdr5∆): 3.07 ± 0.11
- protein stability index (san1∆): 3.15 ± 0.051
- protein stability index (ubr1∆): 3.02 ± 0.067

Sequence: FLKYYGAHKFLDTYLPE [SIR2]
- protein stability index (doa10∆): 1.66 ± 0.06
- protein stability index (pdr5∆): 1.77 ± 0.061
- protein stability index (san1∆): 1.37 ± 0.1
- protein stability index (ubr1∆): 1.67 ± 0.052

Sequence: FLLKAYINVSRGTDIDR [SRB5]
- protein stability index (ubr1∆): 3.08 ± 0.22

Sequence: FLLVPSKQVQVSQQPLS [ECM29]
- protein stability index (doa10∆): 1.81 ± 0.092
- protein stability index (pdr5∆): 1.92 ± 0.072
- protein stability index (san1∆): 1.42 ± 0.11
- protein stability index (ubr1∆): 2.17 ± 0.043

Sequence: FLNEARDKAGRLAEVNL [RPO21]
- protein stability index (doa10∆): 2.05 ± 0.074
- protein stability index (pdr5∆): 1.55 ± 0.054
- protein stability index (san1∆): 2.06 ± 0.13
- protein stability index (ubr1∆): 1.47 ± 0.055

Sequence: FLNHAFDYMNRYWVQKE [CDC53]
- protein stability index (doa10∆): 2.1 ± 0.056
- protein stability index (pdr5∆): 2.48 ± 0.056
- protein stability index (san1∆): 1.89 ± 0.067
- protein stability index (ubr1∆): 1.94 ± 0.046

Sequence: FLSQGLHVVITLLREVV [CSN12]
- protein stability index (doa10∆): 1.49 ± 0.06
- protein stability index (pdr5∆): 1.73 ± 0.059
- protein stability index (san1∆): 1.91 ± 0.093
- protein stability index (ubr1∆): 2.13 ± 0.057

Sequence: FLYEILSSLKSFAIYSS [SRB8]
- protein stability index (doa10∆): 1.24 ± 0.053
- protein stability index (pdr5∆): 1.16 ± 0.038
- protein stability index (san1∆): 1.34 ± 0.099
- protein stability index (ubr1∆): 1.14 ± 0.047

Sequence: FMHDPSVFYNIANMVLP [SIR2]
- protein stability index (doa10∆): 2 ± 0.05
- protein stability index (pdr5∆): 2.03 ± 0.04
- protein stability index (san1∆): 1.85 ± 0.054
- protein stability index (ubr1∆): 1.7 ± 0.036

Sequence: FMRQNLEWNMANLLFKK [RPC82]
- protein stability index (doa10∆): 2.82 ± 0.11
- protein stability index (pdr5∆): 1.94 ± 0.055
- protein stability index (san1∆): 2.49 ± 0.082
- protein stability index (ubr1∆): 2.85 ± 0.063

Sequence: FNFVLLGQIGACHVEVP [COB]
- protein stability index (doa10∆): 1.43 ± 0.085
- protein stability index (pdr5∆): 1.88 ± 0.071
- protein stability index (san1∆): 1.2 ± 0.17
- protein stability index (ubr1∆): 1.6 ± 0.089

Sequence: FNLISNAGTEKEKESKK [YLR335W/NUP2]
- protein stability index (doa10∆): 3.41 ± 0.077
- protein stability index (pdr5∆): 3.35 ± 0.063
- protein stability index (san1∆): 3.44 ± 0.044
- protein stability index (ubr1∆): 3.45 ± 0.068

Sequence: FNNQGKLDLFKYFTELS [MED1]
- protein stability index (doa10∆): 3.07 ± 0.092
- protein stability index (pdr5∆): 2.83 ± 0.072
- protein stability index (san1∆): 2.92 ± 0.056
- protein stability index (ubr1∆): 2.88 ± 0.092

Sequence: FNRENKVSPADAAKKAL [RPS26A]
- protein stability index (doa10∆): 3.42 ± 0.13
- protein stability index (pdr5∆): 3.01 ± 0.14
- protein stability index (san1∆): 3.17 ± 0.048
- protein stability index (ubr1∆): 3.4 ± 0.073

Sequence: FNTNFDDEFGDLDAVFF [SNF6]
- protein stability index (doa10∆): 3 ± 0.076
- protein stability index (pdr5∆): 2.96 ± 0.059
- protein stability index (san1∆): 2.77 ± 0.054
- protein stability index (ubr1∆): 3.01 ± 0.035

Sequence: FPLCVHLVSNELEQLSS [RPL10]
- protein stability index (doa10∆): 2.7 ± 0.079
- protein stability index (pdr5∆): 2.71 ± 0.065
- protein stability index (san1∆): 2.52 ± 0.089
- protein stability index (ubr1∆): 2.44 ± 0.049

Sequence: FPRTRFEAQIDSVEFIF [RPN10]
- protein stability index (doa10∆): 2.61 ± 0.11
- protein stability index (pdr5∆): 2.88 ± 0.066
- protein stability index (san1∆): 2.62 ± 0.11
- protein stability index (ubr1∆): 2.81 ± 0.068

Sequence: FQKETNMKVTILHGSKS [PRP28]
- protein stability index (pdr5∆): 3.38 ± 0.29
- protein stability index (san1∆): 3.21 ± 0.093
- protein stability index (ubr1∆): 3.18 ± 0.21

Sequence: FQLIDMKDKEINIQKYN [CSI1]
- protein stability index (doa10∆): 2.47 ± 0.17
- protein stability index (pdr5∆): 1.98 ± 0.11
- protein stability index (ubr1∆): 2.57 ± 0.14
